According to article PMC11417369, “DNA sequence and chromatin differentiate sequence-specific transcription factor binding in the human malaria parasite Plasmodium falciparum”:

T1: HDP1 homeodomain-like (Plasmodium falciparum, UniProt Q8IKH4 2990-3078)
T1 sequence: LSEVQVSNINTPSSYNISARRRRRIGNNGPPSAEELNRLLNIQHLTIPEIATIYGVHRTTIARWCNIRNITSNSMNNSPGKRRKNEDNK

T2: SIP2 D1 (Plasmodium falciparum, UniProt C6KSN9 177-235)
T2 sequence: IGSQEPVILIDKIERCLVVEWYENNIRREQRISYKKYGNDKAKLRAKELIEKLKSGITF

B1: GTGCAC_negctrl_site528 (dsDNA)
DNA 1: AAACATCTTTACAACGTCCCTCCTTTTTTATGTACC
DNA 2: GGTACATAAAAAAGGAGGGACGTTGTAAAGATGTTT
B2: GTGCAC_negctrl_site150 (dsDNA)
DNA 1: TTGTAATAAAGAATTAAAAAAAAATATATACAGGTA
DNA 2: TACCTGTATATATTTTTTTTTAATTCTTTATTACAA
B3: GTGCAC_negctrl_site656 (dsDNA)
DNA 1: ATTATTTATTTATTTTTTTTTTTTTTCTCTTTTCCT
DNA 2: AGGAAAAGAGAAAAAAAAAAAAAATAAATAAATAAT
B4: GTGCAC_negctrl_site633 (dsDNA)
DNA 1: AAAAAAATAAAAAATATATAAATAATTAATACATGT
DNA 2: ACATGTATTAATTATTTATATATTTTTTATTTTTTT
B5: GTGCAC_negctrl_site715 (dsDNA)
DNA 1: TTTTTTCTTTTATGTGAAATGTAATATTGTTATATA
DNA 2: TATATAACAATATTACATTTCACATAAAAGAAAAAA
B6: GTGCAC_site10459 (dsDNA)
DNA 1: TTATAAATGTGCGTAGTGCATAAACAAAAAAAAAAT
DNA 2: ATTTTTTTTTTGTTTATGCACTACGCACATTTATAA
B7: GTGCAC_negctrl_site189 (dsDNA)
DNA 1: AACAAATATGATTTTTTATATATTTTTAAATTTGGT
DNA 2: ACCAAATTTAAAAATATATAAAAAATCATATTTGTT
B8: GTGCAC_negctrl_site553 (dsDNA)
DNA 1: GGAAAATCTAATCATTTAATATTTATTTATCTAATT
DNA 2: AATTAGATAAATAAATATTAAATGATTAGATTTTCC
B9: GTGCAC_negctrl_site285 (dsDNA)
DNA 1: AAAATATTATTACAGAAACAAAAAGAAAAATATATA
DNA 2: TATATATTTTTCTTTTTGTTTCTGTAATAATATTTT
B10: GTGCAC_negctrl_site227 (dsDNA)
DNA 1: ATAGAATAAATTTTGTCATTTATTCCTTATATATAA
DNA 2: TTATATATAAGGAATAAATGACAAAATTTATTCTAT
B11: GTGCAC_site10021 (dsDNA)
DNA 1: ATAAAATATATATTAGTGCACTAAAGGAAAAAAAAT
DNA 2: ATTTTTTTTCCTTTAGTGCACTAATATATATTTTAT
B12: GTGCAC_negctrl_site723 (dsDNA)
DNA 1: AGCATTTTAAAAGAAAAAAAAAAAAAAAAAAAAATA
DNA 2: TATTTTTTTTTTTTTTTTTTTTTCTTTTAAAATGCT
B13: GTGCAC_negctrl_site367 (dsDNA)
DNA 1: TTTTAAAAAAAAAAAAAATAAGATAAAATTAAATAA
DNA 2: TTATTTAATTTTATCTTATTTTTTTTTTTTTTAAAA
B14: GTGCAC_negctrl_site667 (dsDNA)
DNA 1: GTAAGAATATTTATAAATGTATAATTTGTATTATTT
DNA 2: AAATAATACAAATTATACATTTATAAATATTCTTAC
B15: GTGCAC_negctrl_site246 (dsDNA)
DNA 1: TTAATTCTATACATAAATTATGTTTACATAAAGAAT
DNA 2: ATTCTTTATGTAAACATAATTTATGTATAGAATTAA
B16: GTGCAC_negctrl_site472 (dsDNA)
DNA 1: TATTTAAAATAATAACAAAATTAACATAAATATATA
DNA 2: TATATATTTATGTTAATTTTGTTATTATTTTAAATA
B17: GTGCAC_negctrl_site321 (dsDNA)
DNA 1: ACAAAAAATTAATGAGAAATGGAATAATAAGTTATA
DNA 2: TATAACTTATTATTCCATTTCTCATTAATTTTTTGT
B18: GTGCAC_negctrl_site301 (dsDNA)
DNA 1: TTTATTTATTTATATTTTTTTATATAATTTATATAT
DNA 2: ATATATAAATTATATAAAAAAATATAAATAAATAAA

target: AP2-I D3 (Plasmodium falciparum, UniProt Q8IJW6 910-1027); assay: gcPBM; about 25 ug protein; PBS, 1% milk, 0.2 mg/ml BSA, salmon testes DNA, 0.03% Triton X-100; conditions: tags: N-terminal GST (pGEX-4T-1), kept; label: surface-attached array probe

Binder	binding signal
B1	7.28 ln median PBM intensity, better of two orientations
B2	7.17 ln median PBM intensity, better of two orientations
B3	6.88 ln median PBM intensity, better of two orientations
B4	7.14 ln median PBM intensity, better of two orientations
B5	7.2 ln median PBM intensity, better of two orientations
B6	11.5 ln median PBM intensity, better of two orientations
B7	7.09 ln median PBM intensity, better of two orientations
B8	6.76 ln median PBM intensity, better of two orientations
B9	7.1 ln median PBM intensity, better of two orientations
B10	7.14 ln median PBM intensity, better of two orientations
B11	12.4 ln median PBM intensity, better of two orientations
B12	7.05 ln median PBM intensity, better of two orientations
B13	6.89 ln median PBM intensity, better of two orientations
B14	7.22 ln median PBM intensity, better of two orientations
B15	7.16 ln median PBM intensity, better of two orientations
B16	7.1 ln median PBM intensity, better of two orientations
B17	7.2 ln median PBM intensity, better of two orientations
B18	7.13 ln median PBM intensity, better of two orientations

target: T1, HDP1 homeodomain-like; assay: as above; conditions: tags: N-terminal GST (pGEX-4T-1), kept; chain copies: 2; label: surface-attached array probe

Binder	binding signal
B1	6.32 ln median PBM intensity, better of two orientations
B2	6.31 ln median PBM intensity, better of two orientations
B3	6.27 ln median PBM intensity, better of two orientations
B4	6.32 ln median PBM intensity, better of two orientations
B5	6.24 ln median PBM intensity, better of two orientations
B6	10.2 ln median PBM intensity, better of two orientations
B7	5.9 ln median PBM intensity, better of two orientations
B8	5.78 ln median PBM intensity, better of two orientations
B9	6.37 ln median PBM intensity, better of two orientations
B10	6.37 ln median PBM intensity, better of two orientations
B11	11.6 ln median PBM intensity, better of two orientations
B12	5.84 ln median PBM intensity, better of two orientations
B13	6.01 ln median PBM intensity, better of two orientations
B14	6.29 ln median PBM intensity, better of two orientations
B15	6.34 ln median PBM intensity, better of two orientations
B16	6.24 ln median PBM intensity, better of two orientations
B17	6.32 ln median PBM intensity, better of two orientations
B18	6.28 ln median PBM intensity, better of two orientations

target: T2, SIP2 D1; assay: as above; conditions: tags: N-terminal GST (pGEX-4T-1), kept; label: surface-attached array probe

Binder	binding signal
B2	6.9 ln median PBM intensity, better of two orientations
B3	6.87 ln median PBM intensity, better of two orientations
B6	8.72 ln median PBM intensity, better of two orientations
B7	6.75 ln median PBM intensity, better of two orientations
B8	6.68 ln median PBM intensity, better of two orientations
B9	6.76 ln median PBM intensity, better of two orientations
B10	6.84 ln median PBM intensity, better of two orientations
B11	10.4 ln median PBM intensity, better of two orientations
B12	6.8 ln median PBM intensity, better of two orientations
B13	6.6 ln median PBM intensity, better of two orientations
B14	6.8 ln median PBM intensity, better of two orientations
B15	6.9 ln median PBM intensity, better of two orientations
B17	6.83 ln median PBM intensity, better of two orientations
